Data published in the DeepSol protein solubility set.

Test: soluble on expression in E. coli; label from the status in PepcDB or PDB records

Soluble on expression in E. coli, not soluble:
MGSDKIHHHHHHMEHTRLHNKGLTLDKIFLKTLRTTHNGFLTDGKDRIGYGEFYDRVIAIAEELHRDLGENRTVSVMDWNTLNFATLLYAVPLSGNVLHPVDVRQPPEQVMSSMKEAQSSYLLYSADFGRLADAVKTSGIVKEDNIRSTKEVFDESTDHKPGNAGLPELEEDRIASVLFSSGTTGKPKGVRYRHRDIVLTIWAMETNLSAFPGPARLASSDTVFSLIPFFHLWSWGTLYISTLIGASYVVGGRFDPGSTSDLIKRNGVTWMSMVPTMFNALISWDRNSLDGMKILIGGSAIPSGILNFASDHQIELTGIYGFTDGLAAGIGTSNINGSLSERNADAVNAITPLVFTDFEVEGENNEIKFRSPWIPEGYFNVQEERAYRDGWFYPGDSAEFTQDGKIRIRDRIKDLIKSGGEFIPSALLEYYISEIGDIGDVAVIGVHDDKWIERPVAIYRTRSGATVNDEIIRSYLKDLSNKGLIRDWWIPDRFIPVDSMPMTGTGKIDKKTLRAMLEKGDLRTDRK
MGSDKIHHHHHHMEHTYRLVISCPDRVGIVAKVSNFLSTYNGWITEASHHSDTQAGWFFMRHEIKAESIPFGLDQFRAAFEPIAREFNMNWHIADSARPKRVILMCSKESHCLADLLHRWHSKELNCEIVAVISNHDDLRRMVEWHEIPYHHVPVSKENKAEAFAHIDELFQQYETDVVVLARYMQILPAELCGKYSGKVINIHHSFLPSFAGARPYHQAYSRGVKLIGATCHYVTQDLDEGPIIEQDVIRISHSDSIEDMVRLGKDVEKNVLARGLRSHIEDRVITYENKTVVFD
MGSDKIHHHHHHMEKDRHEIEIFKIDQMFIGDSQEELIKQGEGRRKEHPIAAISTFNPVKRDVFQLIKLTEEKMIPELLGMRHKRMMQNPFSYFRATAGIMEKDLRQFPDGQSHIPVIICGDSHLTNFGFFASPERHLLFGLNDFDEARIGNWEFDLKRLLTSVVLIGRINGYPKEQLDGILAESVHSYRRGIKYANSLPLLDRFNLSYSVDDLLGQMTDNEQMKRVLLKVADRAPKKNSDAVVKKFTEKTEDGRLRFKKNPPRARRVSQKVYAELMASLEDYQKSVADDIRVLLINYEVTDIIRYSVGVGSWGTRCYLALLTGKDGSHLVLQIKEALPLRYNLSALTVEESQAQGKGEGKRIITAQRVLQTYHDPFLGAMEAGGRSFYVRQFRDMKDSIDPLNLDQESFSAYCNMCAFILAIAHYQSPTAPMIYGYVHKQKELDTGLAHWAVKYADQMEADYTCFAKYLQGEGDEE
MGSDKIHHHHHHMEKFIESVANFIDEEDVKVLKAIGSDPIVLHSIKKIFDYPEKANKYLILLRDSPVAVYLVAKISERLSRYLEGEDEAKCFAVFLTALRELRECGDRRVLQNMFLLLKEAIERRLSDGKYEDAAKLVMEFQDFGFKSYVKKVLFFALEVSEEGDYRRAMRILELLPETDAVIDAKASVLLEWGRSLAMSNPEAGMKKIEESLRLKDTVEARLAMAEIHESMGNYEKAYFIYTSLRSLYPGIDRRIARMLMEWGEEIGDVEKLREAYNLAMGDRLLAEEIERRIKKLEAQRLSGS
MGSDKIHHHHHHMEKVKAILFDKDGTLMDFHSIWIKVAEELVAEYIKLYQLPQSMQPTLLKEIGVDGVFVHPRSAIAAGTSLDVAKGLCKYITSSKEEEMHEWVSEKLFALMYEHRSYMKMTADLPRILQSLKDRGFILGVVTADDFAPTELFLKQYQLETFFDYVVASDTFAAQKPDKRIIESFCERFHLKACEVAVVGDTPTDLYLAKNGDCYAIGVLSGTGNRQTLEPLADLVVQSVGDFISHSGEFVWEKGKSNV
MGSDKIHHHHHHMELEKIRKLYEKVDPSQLTEREKLLTELIFTDRKLKTDKLPNGRYRILQFSGNNFEELENTLKLLLPDFVKSIGEEKIVIEAFSTDSPTNSELFDIFQTLSQDMGEEVTAYVGRFVEKNKLSEVYSEEYKIFESQQTFSEYILSESLNLSENRILQEIRKELLENPEDQKLVEAMYKASSNQTKAAKILYVHRNTLINKIKKYEQKYGLQLSGSDLTLAYNLL
MGSDKIHHHHHHMELKDYFPEMQVGPHPLGDKDWMSIKEGDQYVHFPKSCLSEKERLLLEVGLGQCEVLQPLGSPWQRYLLDHQGNPPQLYETSQFIYLNHQQALPDDLVELLQQMIAGLEVILPISATQTAFLCRQAISIKVLRWLEDLLPTLESDFGLALTMFVGNAWYQVAAGTLRECFEEECQLLTAYLRQQSGRKLLTFSGLMLWSLLSHHTFLALTRQFHQFLSPQSDMADVVHALWSEHGNLVQTAQRLYIHRNSLQYKLDKFAQQSGLHLKQLDDLAFAHLFLLKY
MGSDKIHHHHHHMELKEHFNNKIFKLISETADELGLECYVVGGYVRDIFLKRPSKDIDVVVVGSGIEMAQAFGRKLGRGARVSVFKNFGTAQIKYHDTEVEFVGARKESYSHDSRKPVVENGTLEDDQNRRDFTINAMAVCLNKARFGELVDPFNGLDDLKERTIRTPLDPDITFSDDPLRMMRCVRFATQLNFYIDDTTFEALSRNKERIHIISKERIADELNKILLAPIPSKGFIELDRCGLLPLIFPELVALQGVETRNGRAHKDNFYHTLEVVDNISKHTDNLWLRWATLLHDIGKPRTKRWEPRIGWTFHNHNFIGEKMVPDLFRKMKLPMNEKMKYVQKLVSLHMRPIVIADDVVTDSAVRRLLFEAGDDIDDLMMLCEADITSKNEARKQKFLDNFKLVRQKLKDLEEKDRIRNFQPPVDGEEIMRIFDLQPCREIGSLKSSIKDAILDGIIPNEHDAALEHMLKKAKSMGLTPKNL
MGSDKIHHHHHHMELTESIRLLFPPEERAQLDISAIKGDASNRQYYRVTGQGSVSVVCADPAFRATAVENYPFLIVRDLFARHGIRVPELLGMVHEQGLLRLEDCGDLMLQDEVPLLDRNRLSARYRQVIDLLVRIQSIRPDKDALTTTLPFSLSFDHEKLMFEFDFFIEHALNGYFAGRLGKPAIARLREEFINICDLLVLPKHFVLNHRDFHSRNIMLFRAEPVVIDFQDARLGLPQYDAVSLLRDSYVRLDPGMVNELKRYHFNQLVQLGLTSMGEAEYLRLFDLMAFQRNVKAIGTFCYQTTVAGNRTFEPSIAATLSYLREYIEARPELAMAGRLLKPIIPEISR
MGSDKIHHHHHHMEMDERFKDKWYLVKYKFFSNPFYKDFDVYDSSNNVVFTARMNALNPVTRDIVVYEVNKARSEILLISGKHFIRWPNNFEMTSIATREKIGTFRNGPAGWAVLDEYGRQVAILKRIEDPSGAIMYQIRMDSTSVCEYRFINIITPVIMIDFPDESIFSKKMGIGLALVLGYQSVAFNYTYQGW
MGSDKIHHHHHHMENQNHAFNYAYLLKQVKARVLLAQKKAIYTANEEMLSMYWDIGKLLSESQKQIGWGNNALEKLANDLKNDYPEMKGFSVRNCQFMIQFYNEYNQQLTNTKRAVSYLNNNEIVLPISKLGWSHNITLMQRTKDIKARYWYMIQCLKNGWSRDFLIEAIKQDYYHSHGALASNFDTTLPEIQAKQVKETLKDPYIFDMLTFTEEYDERDIELGLIKHIEKFLVEMGAGFAFMGRQYHIEVSEKDFYIDILMYNAFMHRYLVVELKRGEFQPEYIGKLNFYCSAVDDILCREGDNPTIGLLLCQNKDQIMAEYALRDVHKPIGISDYELGQALPKDIKSGLPSIEELENKLSRDLQDIDNKE
MGSDKIHHHHHHMENYKERKLIAIDLDGTTLQSDGRSISRYTKYIFKQVESLGHIICITTGRPFRMSLDVYRELELTSPVINFNGALISMPNDKNWEHTKSYYIDRSFIFDLLRHQQNFNLHFFAVEYRRKFFLNTFRNVEPKLFGVEKFQPYNRLRADRVTENPHAVLLSTRQKDKLALAEEMKRHYNGKIDVGVWGGPNGILEVVPKGISKASGLNHLLKVLDIPLENLIAFGDEHNDIEMFKLAPNAYAMKNASARLTPYASEILPWTNDEDGVARQLEKLFLTPNK
MGSDKIHHHHHHMEPGSQVTDRLRFGCTGCGKCCTGHHVPLTLAEARRWAEDAGQVVVLIEAFVVDGPGMPLEQRDHVLRRSHPVHCGEGEARVSVTFAAFNPGRCRNLDANDLCTIYEQRPLVCRIYPVEINPHIPLRPDSKDCPPEAWQQGPELIHGTQLVDVELQALVQASRQADRDDIAAKVAVCQALGMTTSALKGNGFTAYLPDMGAFAAALAQVQGNEGAQWTLHVQDEALTASLQALGLRTTHETPVYYAFIGF
